Experimental data from paper PMC9369135, “An FGFR1-Binding Peptide Modified Liposome for siRNA Delivery in Lung Cancer” (International Journal of Molecular Sciences, 2022).
Where no end group is shown, it is not given here.

Experiments:
Assay in all cases: MST; protein in a series of gradient dilutions, an equal amount of labeled CP7 peptide added; PBS with 0.05% Tween-20; glass capillary; room temperature; Monolith NT.115
Conditions in all cases: both partners purified
[1] = target: T1, Human VEGFR1/FLT-1 protein (Fc tag) (human, UniProt P17948 27-758)
T1 construct: human VEGFR1/FLT-1, recombinant protein with Fc tag, Sino Biological 10136-H02H; Check the vendor's data sheet; source: bought: Sino Biological
T1 sequence (P17948 27-758): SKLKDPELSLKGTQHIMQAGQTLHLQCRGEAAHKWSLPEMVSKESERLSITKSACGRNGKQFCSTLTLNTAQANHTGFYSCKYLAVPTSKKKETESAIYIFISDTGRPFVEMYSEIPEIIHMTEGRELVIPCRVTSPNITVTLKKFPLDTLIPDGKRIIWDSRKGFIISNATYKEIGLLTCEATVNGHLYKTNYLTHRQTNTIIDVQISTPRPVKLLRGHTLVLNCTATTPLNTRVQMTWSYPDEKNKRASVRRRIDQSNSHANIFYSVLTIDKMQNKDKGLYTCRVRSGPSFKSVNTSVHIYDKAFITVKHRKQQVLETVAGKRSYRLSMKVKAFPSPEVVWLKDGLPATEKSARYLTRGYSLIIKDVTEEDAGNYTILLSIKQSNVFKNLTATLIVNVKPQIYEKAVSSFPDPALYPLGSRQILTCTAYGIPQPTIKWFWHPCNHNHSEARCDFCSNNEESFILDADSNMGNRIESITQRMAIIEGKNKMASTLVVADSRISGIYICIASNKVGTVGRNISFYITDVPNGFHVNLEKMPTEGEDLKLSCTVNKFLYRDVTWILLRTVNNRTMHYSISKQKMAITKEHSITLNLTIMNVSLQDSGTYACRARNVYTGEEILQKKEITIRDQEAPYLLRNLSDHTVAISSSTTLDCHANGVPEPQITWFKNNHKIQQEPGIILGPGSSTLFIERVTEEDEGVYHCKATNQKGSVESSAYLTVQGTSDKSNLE

[2] = target: T2, Human EGFR/HER1/ErbB1 protein (His tag) (human, UniProt P00533 25-645)
T2 construct: human EGFR/HER1/ErbB1, recombinant protein with His tag, Sino Biological 10001-H08H; Check the vendor's data sheet; source: bought: Sino Biological

[3] = target: T3, Human FGFR1/CD331 protein (His tag) (human, UniProt P11362 22-376)
T3 construct: human FGFR1/CD331, recombinant protein with His tag, Sino Biological 10616-H08H; Check the vendor's data sheet; source: bought: Sino Biological
T3 sequence (looked up): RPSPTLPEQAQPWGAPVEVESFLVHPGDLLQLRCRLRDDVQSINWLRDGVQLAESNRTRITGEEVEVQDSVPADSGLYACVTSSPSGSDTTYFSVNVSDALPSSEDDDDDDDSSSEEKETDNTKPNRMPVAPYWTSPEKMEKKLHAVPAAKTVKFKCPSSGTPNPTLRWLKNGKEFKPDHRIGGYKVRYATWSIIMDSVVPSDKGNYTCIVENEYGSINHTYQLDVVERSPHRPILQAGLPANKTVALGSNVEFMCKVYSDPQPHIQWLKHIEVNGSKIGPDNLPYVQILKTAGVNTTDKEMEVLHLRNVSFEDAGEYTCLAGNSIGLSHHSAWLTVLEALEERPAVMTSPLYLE

B1: CP7 peptide (CIQPFYP) (peptide)
peptide: CIQPFYP
modifications: also: labelled, label not named
notes: novel peptide designed and screened by the authors' group; The methods of the MST say only 'the labeled peptide'; source: synthetic peptide: Shanghai GL Biochem Peptide Ltd
Kd [1]: 66.1 nM
Kd [2]: 389 nM
Kd [3]: 22.5 nM
